From patent US10472652B2, “Chemical engineering processes and apparatus for the synthesis of compounds” (TEEWINOT T[…], priority 2013, dated 2019) come the findings set out here.

Type in all cases: biochemical
Series [1] deals with T1, THCA synthase (Cannabis sativa, UniProt Q8GTB6).
T1 construct: His-tag (C); made in house; host or cells: Pichia pastoris (PichiaPink, pPink-HC vector), secreted into the medium; cell-free T3 supernatant used
T1 sequence (Q8GTB6 29-545): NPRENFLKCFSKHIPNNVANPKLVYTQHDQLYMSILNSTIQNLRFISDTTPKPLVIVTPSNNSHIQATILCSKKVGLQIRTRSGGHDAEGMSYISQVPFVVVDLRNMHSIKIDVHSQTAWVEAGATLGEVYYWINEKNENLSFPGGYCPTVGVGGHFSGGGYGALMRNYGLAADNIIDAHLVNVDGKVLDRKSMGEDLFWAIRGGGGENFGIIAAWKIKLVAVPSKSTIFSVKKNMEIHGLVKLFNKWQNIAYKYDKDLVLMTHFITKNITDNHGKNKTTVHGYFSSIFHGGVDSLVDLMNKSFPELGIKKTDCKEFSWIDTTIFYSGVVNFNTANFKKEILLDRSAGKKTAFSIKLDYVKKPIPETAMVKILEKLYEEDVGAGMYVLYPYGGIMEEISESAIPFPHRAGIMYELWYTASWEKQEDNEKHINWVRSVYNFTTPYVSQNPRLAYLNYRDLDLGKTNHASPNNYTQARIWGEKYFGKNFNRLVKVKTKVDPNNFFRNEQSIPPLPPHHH
In words: pH study: ratio of THCA to CBCA produced when THCA synthase is contacted with CBGA. The procedure:
Table 3 illustrates the results of a pH study that was aimed at identifying the effect of pH on product ratio, namely, the ratio of THCA to CBCA compounds produced when THCA synthase is contacted with CBGA as substrate. The pH of the reaction mixture in this study ranged from a pH of 4.0 to 8.0.
In fact, THCA is the major product when catalysis is carried out at a pH of 4.0. Increasing the pH of the reaction mixture altered the product distribution ratio with approximately 30% CBCA being produced as product at a pH of 5.0 and around […] CBCA being produced as product at a pH value of 6.0. A further increase in pH of the reaction mixture, such as an increase of the pH of the reaction mixture to a pH of 7.0 gave CBCA exclusively as the product of THCA synthase catalyzed conversion of CBGA. Any further increases in pH, moreover, reduced or eliminated catalytic activity of THCA synthase, with no product observed for a reaction mixture at a pH of 8.0.

Series [2] concerns the target T1, THCA synthase. In words: effect of detergent SDS on THCA synthase conversion of CBGA. As to conditions: SDS added to 100 mM citrate buffer containing cyclodextrin. Here is the method:
In contrast, addition of SDS to 100 mM citrate buffer containing cyclodextrin destroyed THCA synthases ability to catalyze reaction. Only 8% of the substrate was converted to product under these reaction conditions with the formation of THCA being favored as product under these reaction conditions.

Series [3] deals with T1, THCA synthase. Briefly: effect of concentration of non-aqueous solvent (DMSO) on THCA synthase catalytic rate and THCA:CBCA product ratio. The procedure:
Accordingly, the effects of temperature, pH, solvent, ionic strength and incubation times on the distribution ratio of THCA to CBCA products were studied. In one embodiment, the effect of solvent on product distribution ratio was evaluated. Cannabinoids are lipohilic in nature and are poorly solubilized in aqueous solvents. The poor solubility of cannabinoids in aqueous solvent has prevented the development of ex-vivo enzyme catalyzed methodologies for the synthesis of cannabinoids and cannabinoid analogs.
The catalytic rate […] slightly as concentration of the non-aqueous solvent is increased. Thus, 20% DMSO gave the highest catalytic rate, approximately 2.5-fold faster than catalysis in buffer alone. Table 1 illustrates the effect of concentration of non-aqueous solvent on the rate of catalytic activity.
As further illustrated in this table, the concentration of non-aqueous solvent can alter the ratio of THCA to CBCA produced as product. Thus, greater levels of THCA are obtained when the concentration of DMSO in buffer is less that 20%, with a THCA:CBCA distribution ratio of 10:1 observed when 10% DMSO is used as the solvent.

The target in series [4] is T1, THCA synthase. In words: catalytic activity of THCA synthase from independent colonies of transformed pPink yeast cells (conversion of CBGA to THCA). The note with it: 25 μl cell free supernatant of T3 sample, 100 mM citrate buffer, 10% DMSO, final pH 5.0, 2 hours at 30° C. The procedure: After 24 hours a 100 μL of the cell sample was removed to which was added 100 μL of 40% methanol to induce enzyme production. This methanolic sample was then centrifuged at 12,000 rpm for 5 minutes and the supernatant and pellet were saved as the T1 sample. A second culture sample was obtained after a 48 hour incubation period and treated with methanol as described above. After centrifugation, the supernatant and pellet are saved as the T2 sample. At 72 hours the entire incubation mixture is treated with an appropriate volume of 40% methanol. The supernatant and pellet obtained from methanolic treatment of the culture after a 72 hour incubation period is labeled as T3. The T3 supernatant was spun through an Amicon 30 kD protein filter and analyzed for protein using an SDS-PAGE gel.
The catalytic activity of THCA synthase was measured by incubating 25 μl of the cell free supernatant from a T3 sample with 25 μl of a 1 mg/ml CBGA stock in 200 μl of a 100 mM citrate buffer at pH 4.8 having 10% DMSO for 2 hours at 30° C. The final concentration of CBGA in the reaction mixture was 0.1 mg/ml and the final pH is 5.0. Table 4 illustrates the data related to the catalytic activity of THCA synthase obtained from independent colonies of transformed pPink yeast cells, namely. pPink yeast cells that were transformed using linearized THCA synthase plasmids. Culture samples that converted greater than 20% of the substrate CBGA to product THCA were selected for scale up.

B1: THCA synthase: recombinant His-tagged tetrahydrocannabinolic acid synthase secreted by transformed Pichia pastoris yeast cells (protein, UniProt Q8GTB6 29-545, looked up)
Tetrahydrocannabinolic acid …: T1 sequence (Q8GTB6 29-545)
modifications: His tag
notes: recombinant His-tagged tetrahydrocannabinolic acid synthase secreted by transformed Pichia pastoris yeast cells
B1: the “CBCA (share of product)” value in series [1] (pH 4, substrate CBGA) is “Trace”; in series [1] (pH 7, substrate CBGA), 100%; in series [1] (pH 8, substrate CBGA), 0%. For the same molecule, the “THCA (share of product)” value is listed as 100% in series [1] (pH 4, substrate CBGA); 70% in series [1] (pH 5, substrate CBGA); 85% in series [1] (pH 6, substrate CBGA); 0% in series [1] (pH 7, substrate CBGA); 0% in series [1] (pH 8, substrate CBGA). Moreover, the “substrate converted to product” value in series [2] was found to be 8%. Also, the “FASTER (catalytic rate relative to buffer alone)” value in series [3] (DMSO 0%) turned out to be 1X; in series [3] (DMSO 10%), 1.2X; in series [3] (DMSO 30%) it was 0.3X.

B2: Spe THC #3: cell free supernatant with THCA synthase from a pPink yeast colony transformed with Spe I linearized THCA synthase plasmid (protein, UniProt Q8GTB6 29-545, looked up)
Tetrahydrocannabinolic acid …: T1 sequence (Q8GTB6 29-545)
modifications: yeast culture supernatant
notes: cell free supernatant with THCA synthase from a pPink yeast colony transformed with Spe I linearized THCA synthase plasmid
Consider B2, for which the “% Conversion of CBGA to THCA in reaction containing 0.1 mg/ml CBGA.” value (from here on “% Conversion of CBGA to THCA”) in series [4] is reported as 20.6%.

B3: Spe THC #4: cell free supernatant with THCA synthase from a pPink yeast colony transformed with Spe I linearized THCA synthase plasmid (protein, UniProt Q8GTB6 29-545, looked up)
Tetrahydrocannabinolic acid …: T1 sequence (Q8GTB6 29-545)
modifications: yeast culture supernatant
notes: as for B2
In the case of B3, the “% Conversion of CBGA to THCA” value in series [4] was found to be 28.7%.

B4: Pme THC(3) #20: cell free supernatant with THCA synthase from a pPink yeast colony transformed with Pme I linearized THCA synthase plasmid (protein, UniProt Q8GTB6 29-545, looked up)
Tetrahydrocannabinolic acid …: T1 sequence (Q8GTB6 29-545)
modifications: yeast culture supernatant
notes: cell free supernatant with THCA synthase from a pPink yeast colony transformed with Pme I linearized THCA synthase plasmid
As for B4, the “% Conversion of CBGA to THCA” value in series [4] was 34.3%.

B5: Spe THC #23: cell free supernatant with THCA synthase from a pPink yeast colony transformed with Spe I linearized THCA synthase plasmid (protein, UniProt Q8GTB6 29-545, looked up)
Tetrahydrocannabinolic acid …: T1 sequence (Q8GTB6 29-545)
modifications: yeast culture supernatant
notes: as for B2
On to B5, for which the “% Conversion of CBGA to THCA” value in series [4] is 18.7%.

B6: Spe THC #22: cell free supernatant with THCA synthase from a pPink yeast colony transformed with Spe I linearized THCA synthase plasmid (protein, UniProt Q8GTB6 29-545, looked up)
Tetrahydrocannabinolic acid …: T1 sequence (Q8GTB6 29-545)
modifications: yeast culture supernatant
notes: as for B2
Turning to B6, the “% Conversion of CBGA to THCA” value in series [4] is on record as 20.6%.
